Experimental data taken from US20210363526A1, “Use of Non-Coding Nucleic Acid for Crop Improvement and Protection Against Microbes” (University of Kentucky Research Foundation, priority 2020, published 2021).
Entries after “also recorded” stand apart in the source; their conditions may differ.

Legend:
[1] = system: Pseudomonas syringae DC 3000; assay: SAR (systemic acquired resistance) assay: local treatment, distal leaves challenged with virulent pathogen; format: in vivo, Arabidopsis; conditions: for SAR in ago1 plants: localized application to ago1 plants; for SAR in ago1 plants / SAR in ago7 plants / SAR in tas3a mutant plants: SA 500 μM, Pip 1000 μM, G3P 100 μM, DC3000 48 h later; for SAR in ago7 plants: localized application to ago7 plants; for SAR in tas3a mutant plants: localized application to tas3a plants, AzA 1000 μM
Procedure: Pathogen infection and collection of phloem exudate—Inoculations with Pseudomonas syringae DC 3000 were conducted as described before. The bacterial cultures were grown overnight in King's B medium containing rifampicin and/or kanamycin. For analysis of SAR, the primary leaves were inoculated with MgCl2 or the avr bacteria (10^7 cfu ml^−1) and, 48 h later, the systemic leaves were inoculated with vir bacteria (10^5 cfu m1^−1). Unless noted otherwise, samples from the systemic leaves were harvested at 3 dpi. Petiole exudates were collected in diethyl pyrocarbonate (DEPC) treated water as described earlier. […] PEX RNA was extracted using the TRIzol reagent, quantified using nanodrop and cDNA synthesized from PEX RNA was evaluated for contamination with leaf RNA by assaying for amplification of Rubisco genes. Each sample was run in triplicates and UBC9 expression levels were used as internal control for normalization. Cycle threshold values were calculated by SDS 2.3 software.
Chemical and RNA treatments—SA, G3P, AzA, and Pip treatments were carried out by using 500 μM, 100 μM, 1000 μM, and 1000 μM solutions, respectively. TAS3a RNA was suspended at a concentration of 0.0075-75 ng/μ1 of DEPC water and ˜40 μl was infiltrated per leaf. AzA was prepared in methanol and diluted in water. SA, G3P and Pip were prepared and diluted in water. All dilutions were freshly prepared prior to performing biological experiments.
Statistics and reproducibility—For pathogen assays, ˜16 plants/ genotype/treatment were analyzed in a single experiment. At least 3-4 technical replicates/genotype/treatment were plated. For metabolite quantification, ˜12 plants/genotype/treatment were analyzed in each experiment. Unless otherwise mentioned error bars indicate SD.

[2] = system: auxin responsive factor (ARF) 3; assay: Real-time quantitative RT-PCR of ARF3 expression after TAS3a transcript application; format: in vivo, Arabidopsis; conditions: Col-0 plants, exogenous application, 24 h
Excerpt: FIGS. 9A-H show images and graphs illustrating that TAS3a RNA contains two overlapping open reading frames. (A) Nucleotide sequence of mature TAS3a RNA (SEQ ID NO: 1). Region shaded in purple and gray indicates overlapping open reading frames. Nucleotides shaded in yellow are miR390-AGO7 targeting sites on TAS3a transcript. Arrows indicate position of forward and reverse primers used for quantitative RT-PCR. Residues in red indicate alternate polyadenylation sites. (B) Real-time quantitative RT-PCR showing relative expression levels of ARF3 in Col-0 plants treated with buffer or Tas3a555 for 24 h. The error bars indicate SD (n=4). Results are representative of two independent experiments. Asterisks denote a significant difference (t test, P<0.0001). […] Fresh protoplasts (10^6/ml) were incubated with 2 μM ^32P-TAS3a555 for 1 h, analyzed microscopically before and after four washes and quantified for the amount of radiolabel. […]
RNA extraction, quantitative real-time PCR, and in vitro transcription—Small-scale extraction of RNA from two or three leaves (per sample) was performed with the TRIzol reagent (Invitrogen, CA), following the manufacturer's instructions. RNA quality and concentration were determined by gel electrophoresis and determination of A260. […] Quantitative RT-PCR was carried out as described before. […] Cycle threshold values were calculated by SDS 2.3 software.

[3] = system: isolated protoplasts; assay: Uptake assay of 32P-TAS3a555 into isolated protoplasts; format: cell-based, Arabidopsis; conditions: protoplasts incubated with 2 μM 32P-TAS3a555 for 1 h
Excerpt: FIGS. 9A-H show images and graphs illustrating that TAS3a RNA contains two overlapping open reading frames. (A) Nucleotide sequence of mature TAS3a RNA (SEQ ID NO: 1). Region shaded in purple and gray indicates overlapping open reading frames. Nucleotides shaded in yellow are miR390-AGO7 targeting sites on TAS3a transcript. Arrows indicate position of forward and reverse primers used for quantitative RT-PCR. Residues in red indicate alternate polyadenylation sites. (B) Real-time quantitative RT-PCR showing relative expression levels of ARF3 in Col-0 plants treated with buffer or Tas3a555 for 24 h. The error bars indicate SD (n=4). Results are representative of two independent experiments. Asterisks denote a significant difference (t test, P<0.0001). (C) Uptake assays showing percentage of ^32P-TAS3a555 transported into isolated protoplasts. Fresh protoplasts (10^6/ml) were incubated with 2 μM ^32P-TAS3a555 for 1 h, analyzed microscopically before and after four washes and quantified for the amount of radiolabel. The experiment was repeated three times with similar results. (D) RNA gel electrophoresis of in vitro synthesized TAS3a transcripts used in this study. (E) Typical morphological phenotypes of DC3000 inoculated distal leaves of Col-0 and tas3a plants. […]

[4] = system: SA; assay: SA quantification after localized TAS3a application; format: in vivo, Arabidopsis; conditions: Col-0, localized application
[5] = system: Pip; assay: Pip quantification after localized TAS3a application; format: in vivo, Arabidopsis; conditions: Col-0, localized application
[6] = system: ROS; assay: ROS (H2O2, DAB staining) after localized TAS3a application; format: in vivo, Arabidopsis; conditions: Col-0, localized application
Procedure: FIGS. 12A-D show graphs and images illustrating that exogenous application of TAS3a induces G3P but not SA, Pip, or ROS. (A) SA (left panel) and SAG (right panel) levels in Col-0 plants infiltrated with MgCl2, avrRpt2 or TAS3a transcripts. Leaf samples were collected 24 and 48 h post treatments. The error bars indicate SD (n=4). Asterisks denote a significant difference with respective mock-inoculated samples (t test, P<0.0001). (B) Pip levels in local tissues of Col-0 plants infiltrated with MgCl2 (mock), avrRpt2 or TAS3a transcripts. The leaves were sampled 48 h post treatments. Asterisks denote a significant difference with mock (t test, P<0.0001). The experiment was repeated two times with similar results. (C) H2O2 levels in local tissues of Col-0 plants after mock (MgCl2), pathogen (avrRpt2) or TAS3a treatments. The leaves were sampled 24 h post treatments and stained with DAB (3,3-diaminobenzidine). The experiment was repeated two times with similar results. (D) G3P levels in local tissues of water or 555 bp TAS3a transcript treated Col-0 plants. The leaves were sampled 24 h post treatments and the experiment was repeated two times with similar results. Asterisks denote a significant difference with respective mock-inoculated samples (t test, P<0.001).

[7] = system: G3P; assay: G3P quantification after localized TAS3a application; format: in vivo, Arabidopsis; conditions: Col-0, localized application, 24 h

O=C(O)C1CCCCN1 (stereo not drawn) [Pip, pipecolic acid] was tested, and the “SAR in ago1 plants” value [1] was “unable to restore SAR”, the “SAR in ago7 plants” value [1] was “unable to restore SAR” and the “SAR in tas3a mutant plants” value [1] was “did not restore SAR”.

O=C(O)CCCCCCCC(=O)O [AzA, azelaic acid] was tested, and the “SAR in tas3a mutant plants” value [1] was “did not restore SAR”.

O=P(O)(O)OCC(O)CO (stereo not drawn) [G3P, glycerol-3-phosphate] was tested, and the “SAR in ago1 plants” value [1] was “unable to restore SAR”, the “SAR in ago7 plants” value [1] was “unable to restore SAR” and the “SAR in tas3a mutant plants” value [1] was “did not restore SAR”.

With O=C(O)c1ccccc1O [SA, salicylic acid] the “SAR in ago1 plants” value [1] was “unable to restore SAR”, the “SAR in ago7 plants” value [1] was “unable to restore SAR” and the “SAR in tas3a mutant plants” value [1] was “did not restore SAR”.

B1: TAS3a transcript: exogenously applied in vitro transcribed TAS3a RNA, length not stated at the place (figure legends: 555 nt) (nucleic acid, listed as Arabidopsis thaliana)
chain: AUCCCACCGUUUCUUAAGACUCUCUCUCUUUCUGUUUUCUAUUUCUCUCUCUCUCAAAUGAAAGAGAGAGAAGAGCUCCCAUGGAUGAAAUUAGCGAGACCGAAGUUUCUCCAAGGCAUUAAGGAAAACAUAACCUCCGUGAUGCAUAGAGAUUAUUGGAUCCGCUGUGCUGAGACAUUGAGUUUUUCUUCGGCAUUCCAGUUUCAAUGAUAAAGCGGUGUUAUCCUAUCUGAGCUUUUAGUCGGAUUUUUUCUUUUCAAUUAUUGUGUUUUAUCUAGAUGAUGCAUUUCAUUAUUCUCUUUUUCUUGACCUUGUAAGGCCUUUUCUUGACCUUGUAAGACCCCAUCUCUUUCUAAACGUUUUAUUAUUUUCUCGUUUUACAGAUUCUAUUCUAUCUCUUCUCAAUAUAGAAUAGAUAUCUAUCUCUACCUCUAAUUCGUUCGAGUCAUUUUCUCCUACCUUGUCUAUCCCUCCUGAGCUAAUCUCCACAUAUAUCUUUUGUUUGUUAUUGAUGUAUGGUUGACAUAAAUUCAAUAAAGAAGUUGACGUUUUUCU
For B1, the “SAR induction in wild-type plants” value ([1]; localized application to wild-type Col-0, virulent DC3000 inoculated on distal leaves 48 h post-local treatment, transcripts 0.039 nmol/ml, Tasi-ARFs 1 μM (figure legends)) was “confer robust SAR; also recorded: able to induce SAR”, the “expression of TAS3a target gene ARF3” value [2] was “suppressed” and the “uptake in isolated protoplasts” value [3] was “confirmed by uptake”. The SA accumulation [4] was “did not induce”, the SA accumulation ([4]; listed as TAS3a) was “not” and the Pip accumulation [5] was “did not induce”. For the same molecule, the Pip accumulation ([5]; listed as TAS3a) was “not”, the ROS accumulation [6] was “did not induce” and the ROS accumulation ([6]; listed as TAS3a) was “not”. The G3P levels [7] was “did increase” and the G3P levels ([7]; listed as TAS3a) was “induces”.
